Measured values as given in PMC10457321, “Architecture of the Heme-translocating CcmABCD/E complex required for Cytochrome c maturation” (Nature Communications, 2023).

Legend:
[1] = target: the molecule itself; assay: cryo-EM structure; single-particle analysis of the co-expressed, co-purified E154Q^A variant complex in DDM, no ATP added, closed state; Ccm(E154QAB)2CD at 3.94 A
[2] = target: T1, Ccm(ABCD)2 heterooctameric heme translocation complex (Escherichia coli, UniProt P33931 1-207; P0ABL8 1-220; P0ABM1 1-245; P0ABM5 1-69); assay: cryo-EM structure; single-particle analysis of the co-expressed, co-purified wild-type CcmABCDE sample in GDN, nucleotide-free, inward-open state; classes Ccm(ABCD)2 at 3.47 A and Ccm(ABCD)2E at 3.81 A; 20 mM Tris/HCl pH 7.5, 150 mM NaCl; conditions: both partners purified
T1 construct: CcmA of Escherichia coli, as m1; CcmB of Escherichia coli, as m2; CcmC of Escherichia coli, as m3; CcmD of Escherichia coli, as m4; Nucleotide-free, inward-open state; C2-symmetric heterooctamer; Used as the target of CcmE; also called CcmABCD complex; source: GDN; copies: 2 + 2 + 2 + 2
T1 sequence 1: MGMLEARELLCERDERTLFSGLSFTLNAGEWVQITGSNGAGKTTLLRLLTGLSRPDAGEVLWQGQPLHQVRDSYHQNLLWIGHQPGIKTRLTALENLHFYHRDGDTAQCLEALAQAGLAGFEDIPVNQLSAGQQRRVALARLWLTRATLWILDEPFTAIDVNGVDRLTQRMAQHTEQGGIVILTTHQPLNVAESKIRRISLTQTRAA
T1 sequence 2: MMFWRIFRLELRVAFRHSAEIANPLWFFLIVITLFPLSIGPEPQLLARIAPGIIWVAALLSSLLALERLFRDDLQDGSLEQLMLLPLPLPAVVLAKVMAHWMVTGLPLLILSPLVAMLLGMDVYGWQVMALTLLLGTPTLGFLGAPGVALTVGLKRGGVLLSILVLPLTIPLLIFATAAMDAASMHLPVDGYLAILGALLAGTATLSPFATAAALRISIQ
T1 sequence 3: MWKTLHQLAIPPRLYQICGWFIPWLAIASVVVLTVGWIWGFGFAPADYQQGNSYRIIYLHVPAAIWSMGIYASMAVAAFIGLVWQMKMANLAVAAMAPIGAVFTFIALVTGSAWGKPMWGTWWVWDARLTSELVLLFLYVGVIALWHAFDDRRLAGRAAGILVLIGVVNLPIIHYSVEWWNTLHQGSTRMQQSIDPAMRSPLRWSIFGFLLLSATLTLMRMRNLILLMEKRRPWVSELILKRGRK
T1 sequence 4: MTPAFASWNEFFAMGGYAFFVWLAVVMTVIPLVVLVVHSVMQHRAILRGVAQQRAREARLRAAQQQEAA

[3] = target: the molecule itself; assay: cryo-EM structure; single-particle analysis of the co-expressed, co-purified E154Q^A variant complex in GDN with 2.5 mM ATP added, closed state; Ccm(E154QAB)2CD with ATP at 3.62 A

B1: CcmB, transmembrane subunit of the core ABC transporter CcmAB (natural protein, Escherichia coli)
chain: MMFWRIFRLELRVAFRHSAEIANPLWFFLIVITLFPLSIGPEPQLLARIAPGIIWVAALLSSLLALERLFRDDLQDGSLEQLMLLPLPLPAVVLAKVMAHWMVTGLPLLILSPLVAMLLGMDVYGWQVMALTLLLGTPTLGFLGAPGVALTVGLKRGGVLLSILVLPLTIPLLIFATAAMDAASMHLPVDGYLAILGALLAGTATLSPFATAAALRISIQ
notes: CcmB of Escherichia coli, integral membrane protein with six transmembrane helices, expressed from the ccm operon amplified from pEC86; Expressed from the cloned ccm operon; no truncation is described; source: DDM or GDN
stoichiometry N [1]: 2

B2: CcmE, heme chaperone (natural protein, Escherichia coli)
chain: MNIRRKNRLWIACAVLAGLALTIGLVLYALRSNIDLFYTPGEILYGKRETQQMPEVGQRLRVGGMVMPGSVQRDPNSLKVTFTIYDAEGSVDVSYEGILPDLFREGQGVVVQGELEKGNHILAKEVLAKHDENYTPPEVEKAMEANHRRPASVYKDPAS
notes: CcmE of Escherichia coli, monotopic membrane protein with an N-terminal transmembrane helix (modelled N2 to S32) and a periplasmic beta-barrel domain from F37; the ccmE gene stood in the construct used to produce CcmABCD; also called chaperone CcmE; source: GDN
stoichiometry N [2]: 1

B3: CcmA E154Q variant with N-terminal StrepTag(II) (natural protein, Escherichia coli)
chain: MGMLEARELLCERDERTLFSGLSFTLNAGEWVQITGSNGAGKTTLLRLLTGLSRPDAGEVLWQGQPLHQVRDSYHQNLLWIGHQPGIKTRLTALENLHFYHRDGDTAQCLEALAQAGLAGFEDIPVNQLSAGQQRRVALARLWLTRATLWILDQPFTAIDVNGVDRLTQRMAQHTEQGGIVILTTHQPLNVAESKIRRISLTQTRAA
notes: CcmA of Escherichia coli with the catalytic glutamate of the switch II region (Walker B motif) replaced; Same construct as m1 apart from E154Q; also called E154Q^A variant; ^E154QA; source: DDM or GDN
stoichiometry N [3]: 2
